In paper PMC6624210 (Nature Communications, 2019):

B1: mouse monoclonal antibody 7D10 (antibody, V domains shown)
VH: EVQLVESGAEVVKPGASVKMSCKASGYPFTSYNIHWIKQTPGQGLEWIGAIYPGNGDTSYTQKFKVKATLTSDKSSSTAYMQLSSLTSEDSAVYFCARYGNYPSYAMDYWGQGTSVTVSS
VL: DIVMTQSPASLTVSLGQRATISCRASKSVSASGYNYLHWYQQRPGQPPKLLIYLAFNLESGVPARFNGSGSGTDFTLNIHPVEEEDAATYYCQHSRDLPFTFGSGTKLEIK
B2: 7D10 scFv (VL, triple GGGS linker, VH) (scFv, V domains shown)
VH: B1 VH
VL: B1 VL

What was measured:
[1] = target: recombinant receptor-binding domain of MERS-CoV S glycoprotein (residues 367-606) (MERS-CoV, EMC/2012 (strain used …, UniProt K0BRG7)); assay: ELISA; conditions: both partners purified
[2] = target: MERS-CoV spike glycoprotein S1 N-terminal domain (residues 18-353), wild type (MERS-CoV, EMC strain (NTD sequence …, UniProt K9N5Q8)); assay: cell-based or functional assay
Sequence of MERS-CoV spike glycoprotein S1 N-terminal domain (residues 18-353), wild type (MERS-CoV, EMC strain (K9N5Q8 18-353): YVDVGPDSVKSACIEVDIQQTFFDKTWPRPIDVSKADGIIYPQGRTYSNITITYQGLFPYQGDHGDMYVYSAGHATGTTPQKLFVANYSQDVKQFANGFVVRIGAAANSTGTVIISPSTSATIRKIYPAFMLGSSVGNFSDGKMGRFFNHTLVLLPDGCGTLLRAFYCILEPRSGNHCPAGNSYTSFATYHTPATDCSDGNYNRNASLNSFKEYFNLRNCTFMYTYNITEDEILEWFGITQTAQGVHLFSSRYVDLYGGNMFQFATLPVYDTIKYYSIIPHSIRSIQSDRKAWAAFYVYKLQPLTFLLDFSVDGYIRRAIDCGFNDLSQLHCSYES

| Binder | binding result [1] | IC50 of neutralisation of pseudotyped MERS-CoV on Huh7 cells (luciferase) [2] [µg/mL] | IC50 of inhibition of cell entry of pseudotyped MERS-CoV (Huh7 cells) [2] [µg/mL] |
| --- | --- | --- | --- |
| B1 | no binding (tested: 4 μg mL^−1) | ~0.18 | – |
| B2 | – | – | 0.28 |
